From patent publication US20140106371A1 (DUBLIN CITY UNIVERSITY, published 2014)

Biological target: T1, asialotransferrin (human, UniProt P02787 20-698, N-linked glycans desialylated with neuraminidase (Clostridium perfingens), exposing terminal LacNAc (β1,4-linked galactose); partially desialylated by paragraph 70)
T1 construct: Same polypeptide as transferrin; differs only in glycans; also called AsT
Assay: qualitative ELLA

T1 sequence (P02787 20-698 limits assumed): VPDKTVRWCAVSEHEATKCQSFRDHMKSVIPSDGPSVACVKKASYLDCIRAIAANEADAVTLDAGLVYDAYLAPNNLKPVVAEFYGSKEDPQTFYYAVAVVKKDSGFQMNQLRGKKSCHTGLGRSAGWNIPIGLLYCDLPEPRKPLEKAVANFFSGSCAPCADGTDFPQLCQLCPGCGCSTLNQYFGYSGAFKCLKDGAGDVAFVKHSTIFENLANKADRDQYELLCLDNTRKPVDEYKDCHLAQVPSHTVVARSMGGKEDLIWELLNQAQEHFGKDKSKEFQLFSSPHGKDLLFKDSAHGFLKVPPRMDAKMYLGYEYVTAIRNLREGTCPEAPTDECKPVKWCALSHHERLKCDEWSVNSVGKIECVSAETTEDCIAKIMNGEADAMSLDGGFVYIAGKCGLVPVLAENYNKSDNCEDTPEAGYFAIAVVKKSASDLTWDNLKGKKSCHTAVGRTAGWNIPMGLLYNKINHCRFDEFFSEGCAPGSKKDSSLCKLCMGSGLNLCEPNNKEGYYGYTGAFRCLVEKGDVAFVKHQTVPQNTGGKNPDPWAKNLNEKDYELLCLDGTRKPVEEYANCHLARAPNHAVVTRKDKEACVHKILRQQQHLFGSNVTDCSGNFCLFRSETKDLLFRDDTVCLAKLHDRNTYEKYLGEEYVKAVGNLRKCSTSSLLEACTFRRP

B1: H50E (rPA-ILNm protein) (other)
chain: RGSHHHHHHGSMAWKGEVLANNEAGQVTSIIYNPGDVITIVAAGWASYGPTQKWGPQGDREEPDQGLICHDAFCGALVMKIGNSGTIPVNTGLFRWVAPNNVQGAITLIYNDVPGTYGNNSGSFSVNIGKDQS
B1: no binding (tested: 2 µg mL^-1).

B2: H50P (rPA-ILNm protein) (other)
chain: RGSHHHHHHGSMAWKGEVLANNEAGQVTSIIYNPGDVITIVAAGWASYGPTQKWGPQGDREPPDQGLICHDAFCGALVMKIGNSGTIPVNTGLFRWVAPNNVQGAITLIYNDVPGTYGNNSGSFSVNIGKDQS
B2: no binding (tested: 2 µg mL^-1).

B3: H50K (rPA-ILNm protein) (other)
chain: RGSHHHHHHGSMAWKGEVLANNEAGQVTSIIYNPGDVITIVAAGWASYGPTQKWGPQGDREKPDQGLICHDAFCGALVMKIGNSGTIPVNTGLFRWVAPNNVQGAITLIYNDVPGTYGNNSGSFSVNIGKDQS
B3: no binding (tested: 2 µg mL^-1).

B4: H50T (rPA-ILNm protein) (other)
chain: RGSHHHHHHGSMAWKGEVLANNEAGQVTSIIYNPGDVITIVAAGWASYGPTQKWGPQGDRETPDQGLICHDAFCGALVMKIGNSGTIPVNTGLFRWVAPNNVQGAITLIYNDVPGTYGNNSGSFSVNIGKDQS
B4: no binding (tested: 2 µg mL^-1).

B5: H50V (rPA-ILNm protein) (other)
chain: RGSHHHHHHGSMAWKGEVLANNEAGQVTSIIYNPGDVITIVAAGWASYGPTQKWGPQGDREVPDQGLICHDAFCGALVMKIGNSGTIPVNTGLFRWVAPNNVQGAITLIYNDVPGTYGNNSGSFSVNIGKDQS
B5: no binding (tested: 2 µg mL^-1).

B6: H50Q (rPA-ILNm protein) (other)
chain: RGSHHHHHHGSMAWKGEVLANNEAGQVTSIIYNPGDVITIVAAGWASYGPTQKWGPQGDREQPDQGLICHDAFCGALVMKIGNSGTIPVNTGLFRWVAPNNVQGAITLIYNDVPGTYGNNSGSFSVNIGKDQS
B6: no binding (tested: 2 µg mL^-1).

B7: H50L (rPA-ILNm protein) (other)
chain: RGSHHHHHHGSMAWKGEVLANNEAGQVTSIIYNPGDVITIVAAGWASYGPTQKWGPQGDRELPDQGLICHDAFCGALVMKIGNSGTIPVNTGLFRWVAPNNVQGAITLIYNDVPGTYGNNSGSFSVNIGKDQS
B7: no binding (tested: 2 µg mL^-1).

B8: H50A (rPA-ILNm protein) (other)
chain: AWKGEVLANNEAGQVTSIIYNPGDVITIVAAGWASYGPTQKWGPQGDREAPDQGLICHDAFCGALVMKIGNSGTIPVNTGLFRWVAPNNVQGAITLIYNDVPGTYGNNSGSFSVNIGKDQS
notes: not shown: N-terminal RGS-6HIS tag and added vector residues (pQE30)
B8: no binding (tested: 2 µg mL^-1).

B9: H50R (rPA-ILNm protein) (other)
chain: AWKGEVLANNEAGQVTSIIYNPGDVITIVAAGWASYGPTQKWGPQGDRERPDQGLICHDAFCGALVMKIGNSGTIPVNTGLFRWVAPNNVQGAITLIYNDVPGTYGNNSGSFSVNIGKDQS
notes: as for B8
B9: no binding (tested: 2 µg mL^-1).

B10: H50F (rPA-ILNm protein) (other)
chain: AWKGEVLANNEAGQVTSIIYNPGDVITIVAAGWASYGPTQKWGPQGDREFPDQGLICHDAFCGALVMKIGNSGTIPVNTGLFRWVAPNNVQGAITLIYNDVPGTYGNNSGSFSVNIGKDQS
notes: as for B8
B10: no binding (tested: 2 µg mL^-1).

B11: H50S (rPA-ILNm protein) (other)
chain: AWKGEVLANNEAGQVTSIIYNPGDVITIVAAGWASYGPTQKWGPQGDRESPDQGLICHDAFCGALVMKIGNSGTIPVNTGLFRWVAPNNVQGAITLIYNDVPGTYGNNSGSFSVNIGKDQS
notes: as for B8
B11: no binding (tested: 2 µg mL^-1).
